# Laboratory results: patent publication US20200282035A1 (MILTENYI BIOTEC B V, published 2020)
# T1: TSPAN8 (human, UniProt P19075 1-237)
# T1 construct: whole, on cells
# T1 sequence (looked up): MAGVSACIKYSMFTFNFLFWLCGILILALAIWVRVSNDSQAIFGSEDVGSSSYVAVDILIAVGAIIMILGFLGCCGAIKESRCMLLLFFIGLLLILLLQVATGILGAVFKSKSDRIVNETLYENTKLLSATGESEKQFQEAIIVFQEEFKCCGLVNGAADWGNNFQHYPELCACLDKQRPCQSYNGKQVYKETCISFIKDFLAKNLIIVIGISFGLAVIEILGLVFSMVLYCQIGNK
# T2: CD318 (human, UniProt Q9H5V8 30-836)
# T2 construct: whole, on cells
# T2 sequence (looked up): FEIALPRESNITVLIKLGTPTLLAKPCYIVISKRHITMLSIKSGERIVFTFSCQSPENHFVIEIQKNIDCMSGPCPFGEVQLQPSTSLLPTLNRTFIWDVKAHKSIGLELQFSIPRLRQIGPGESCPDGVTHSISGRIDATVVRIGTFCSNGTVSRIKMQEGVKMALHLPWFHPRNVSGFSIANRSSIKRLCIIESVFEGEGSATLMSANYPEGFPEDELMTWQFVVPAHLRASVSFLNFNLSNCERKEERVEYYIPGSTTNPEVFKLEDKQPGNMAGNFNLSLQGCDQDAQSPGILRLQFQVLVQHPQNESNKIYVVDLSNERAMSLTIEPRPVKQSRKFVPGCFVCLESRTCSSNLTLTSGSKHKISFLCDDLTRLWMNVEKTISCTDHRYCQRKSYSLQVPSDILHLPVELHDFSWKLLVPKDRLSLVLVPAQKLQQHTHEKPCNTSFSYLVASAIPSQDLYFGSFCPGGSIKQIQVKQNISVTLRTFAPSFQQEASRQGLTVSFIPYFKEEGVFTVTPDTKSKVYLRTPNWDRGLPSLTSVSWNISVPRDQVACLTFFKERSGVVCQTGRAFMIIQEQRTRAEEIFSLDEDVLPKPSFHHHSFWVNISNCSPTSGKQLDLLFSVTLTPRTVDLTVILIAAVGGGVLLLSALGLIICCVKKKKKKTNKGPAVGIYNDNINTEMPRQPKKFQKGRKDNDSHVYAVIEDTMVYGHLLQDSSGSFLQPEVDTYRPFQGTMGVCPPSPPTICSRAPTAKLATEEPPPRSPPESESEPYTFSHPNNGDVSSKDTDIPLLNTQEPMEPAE
# Columns and labels:
# [1] = biological target: T1, TSPAN8; assay: antibody used for staining of human pancreatic cancer cells (flow cytometry, immunohistochemistry; Example 1); told in words only
# [2] = biological target: T2, CD318; assay: as above
binding result [1],binding result [2],Binder
binds,,"TSPAN8 specific antibody (antibody, V domains shown, also called TSPAN8 VH) VH: EVKLLESGGGLVQPGGSMRLSCAASGFTFTDFYMNWIRQPAGKAPEWLGFIRNKASGYTTEYNPSVKGRFTISRDNTQNMLYLQMNTLRAEDTATYYCARAHSYYGYDYFDYWGQGVMVTVSS VL: DIQMTQSPASLSASLEEIVTITCQASQDIGNWLSWYQQKPGKSPQLLIYGATSLADGVPSRFSGSRSGTQYSLKISRLQVEDIRIYYCLQAYSAPWTFGGGTKLELK"
,binds,"CD318 specific antibody (antibody, V domains shown, also called CD318 VH) VH: EVQLQQSGAELVRPGALVKLSCKASGFNIKDYYIHWVKQRPEQGLEWIGWIDPENGHTIYDPKFQGKASITADTSSNTAYLQLSSLTSEDTAVYYCARLTGTTYAMDYWGQGTSVTVSS VL: DIVMTQSHKFMSTSVGDRVSITCKASQDVSTAVAWYQQKSGQSPKLLIYWASTRHTGVPDRFTGSGSGTDYTLTISSVQAEDLALYYCQQHYSTPYTFGGGTKLEIK"
